This data set can be described thus: soluble on expression in E. coli; label from the status in PepcDB or PDB records.
Take “MGSDKIHHHHHHMGGKWMRWMAPAPPASNVPKCSCHRLLGKEPPNDSKDCRPGSLTGRALFSDVPRGMAKDVFQVHCVSATGRRVINKKIKRAKLLAFLETLPRCVVGMEACGSAHHWGGELRKLGHDVRLMPAAYVKLYVKRGKTDAADAEAICEAVRRQSMRFVEIESEDQQAVLAIHSARDLVVRQRTQVVNMIRSILREFGHILPTGIEAVSKFAREHGTEDQLDMPEIADGILGVMCHQLNGLNARVDGLTKLIEQHAWLDADARRLMRMPGIGPITASAIVATIGDAKQFETGRDLATWLGLTPLNKSSGGKERLGRIIKKGDRYIRKLLIIGMTSRSLMAKNKPEKADTWTAKLPDEQPFRLATVAMANKSARIIWALLTKREEYRQPIV”: the “soluble on expression in E. coli” value is reported as “not soluble”.

As to “LIGYVRVSTNDQNTDLQRNALNCAGCELIFEDKISGTKSERPGLKKLLRTLSAGDTLVVWKLDRLGRSMRHLVVLVEELRERGINFRSLTDSIDTSTPMGRFFFHVMGALAEMERELIVERTKAGLETARAQGRIGGRRPKLTPEQWAQAGRLIAAGTPRQKVAIIYDVGVSTLYKRFPAGDK”, the “soluble on expression in E. coli” value is on record as “soluble”.

“MQLHEQIANISVTFNDIPRSDHSMTPTELCYFDDFATTLVVDSVLNFTTHKMSKKRRYLYQDEYRTARTVMKTFREQRDWTNAIYGLLTLRSVSHFLSKLPPNKLFEFRDHIVRFLNMFILDSGYTIQECKRYSQEGHQGAKLVSTGVWSRGDKIERLSGVVCLLSSEDEDSILAQEGSDFSVMYSTRKRCSTLWLGPGAYINHDCRPTCEFVSHGSTAHIRVLRDMVPGDEITCFYGSEFFGPNNIDCECCTCEKNMNGAFSYLRGNENAEPIISEKKTKYELRSRS”: the “soluble on expression in E. coli” value is listed as “not soluble”.

On to “MGSDKIHHHHHHMFTKKSRNIYKAGSLCEFAKAFFIGGIDVENVVKHALLKEVEQLMEQYIGGLKEIFLDEKIVGVYIYGSIALGAFHAETSDVDFVTVISDPVNEAEKQQLVELHKKLSGSTLGKRMDGMYIPLADLGKYNDEMNEYVYCADGKANIGHWDINAVTWWTLKNQGITVIGKEAEDLSFQIRWDDVVNTMKYNVEQYWSGKAKQPYLFFIEEWVESAVVTMGRILYTLDHKTIVSKDRGLQYLLEHSSEEWGPLLKEVERIRQNPKEKRMLSRWRRADMTKRFLLHLIETCRGKWTIQ”, for which the “soluble on expression in E. coli” value is “not soluble”.

On to “MDSFWFVQQWPPAVCSFQKSGSCPGSGLRTFTIHGLWPQQSGTSLTNCPGSPFDITKISHLQSQLNTLWPSVLRANNQQFWSHEWTKHGTCSESTFNQAAYFKLAVDMRNNYDIIGALRPHAAGPNGRTKSRQAIKGFLKAKFGKFPGLRCRTDPQTKVSYLVEVVACFAQDGSTLIDCTRDTCGANFIF”, for which the “soluble on expression in E. coli” value is recorded as “soluble”.

Take “GSMDALNSKEQQEFQKVVEQKQMKDFMRLYSNLVERCFTDCVNDFTTSKLTNKEQTCIMKCSEKFLKHSERVGQRFQEQNAALGQGLGR”: the “soluble on expression in E. coli” value is recorded as “soluble”.

As to “SLQDFWCSTLVKGVIYGSYSVSEMFPKNFTNCTWTLENPDPTKYSIYLKFSKKDLSCSNFSLLAYQFDHFSHEKIKDLLRKNHSIMQLCNSKNAFVFLQYDKNFIQIRRVFPTNFPGLQKKGEEDQKSFFEFLVLNKVSPSQFGCHVLCTWLESCLKSENGRTESCGIMYTKCTCPQHLGEWGIDDQSLILLNNVVLPLNEQTEGCLTQELQTTQVCNLTREAKRPPKEEFGMMGDHTIKSQRPRSVHEKRVPQEQADAAKFMAQTG”, the “soluble on expression in E. coli” value is listed as “soluble”.

In the case of “MGSDKIHHHHHHMIMRILVVGDFLKTSGMTRYIFNVIGRIHASDFQVDALSISGKDECKGQVKKMGWGFYCVQAANNNLLRHLVQSFIFFKKHAKDYDVIHFNESALWNFLPIIFAHLFGAKRIILNSHNTYFATEGSKKLYVVLEIMHRIGKWLVAHVVAQNIAVSEEAARWMFTRKTINRHEYKIIVNGIELEKFAYNKEQRFKIRKSLKINEDTFLFGNVGIFNARKNQLRLLEIFNELVKRNLDVKLVLVGDGPIKEAIVAKISELRLADKVVMTGLINNTNEYYQAMDGVIMPSLNEGLSTVLLEAQTSGLQFILSEGLPLGNHIDLLVHEVPLSESNRVWADVVEHNMNREKREVFGSIMQKKGFDVELSAKELYQTYLEER”, the “soluble on expression in E. coli” value is reported as “not soluble”.

For the sequence “AGCEGLRIGQSALQARLSDQIDKLTQAEQHANQMLIDVRSRNHDTMKHITAIKSAQPKADTQAYIQNWADQYSQYDRFLKGENAYVAGVLYDFLEKARASNVSVSLHMHTPLSSLPFSPADQVSLVGNILENALDSAAEAREKAEIKLETSLRSGLYVLTCENSTPGMDPKVLDTIYQSFGRSTKNGAHEGMGTYIIQKLVKGAFGRLDFTYRHPIFRLEIKIPFQ”, the “soluble on expression in E. coli” value was “not soluble”.

(Values after the DeepSol protein solubility set.)
